Reference: article PMC4538830, “CTNNBL1 facilitates the association of CWC15 with CDC5L and is required to maintain the abundance of the Prp19 spliceosomal complex” (Nucleic Acids Research, 2015)

Key:
[1] = molecular target: T1, full-length recombinant His tagged CTNNBL1 (human, UniProt Q8WYA6 1-563); assay: pull-down; His-CTNNBL1 (full length or [77–563]) as bait on Ni-NTA resin; 10–20 μg of each purified protein in pull down buffer, 1 h at 4°C; eluates on SDS-PAGE, Instant Blue; conditions: both partners purified
T1 construct: Homotrimer when alone in solution by SEC-MALS (186 kDa); also called His-CTNNBL1; full-length CTNNBL1; source: E. coli BL21 Rosetta (DE3)pLysS, purified (Ni-NTA, Resource Q)
T1 sequence (looked up): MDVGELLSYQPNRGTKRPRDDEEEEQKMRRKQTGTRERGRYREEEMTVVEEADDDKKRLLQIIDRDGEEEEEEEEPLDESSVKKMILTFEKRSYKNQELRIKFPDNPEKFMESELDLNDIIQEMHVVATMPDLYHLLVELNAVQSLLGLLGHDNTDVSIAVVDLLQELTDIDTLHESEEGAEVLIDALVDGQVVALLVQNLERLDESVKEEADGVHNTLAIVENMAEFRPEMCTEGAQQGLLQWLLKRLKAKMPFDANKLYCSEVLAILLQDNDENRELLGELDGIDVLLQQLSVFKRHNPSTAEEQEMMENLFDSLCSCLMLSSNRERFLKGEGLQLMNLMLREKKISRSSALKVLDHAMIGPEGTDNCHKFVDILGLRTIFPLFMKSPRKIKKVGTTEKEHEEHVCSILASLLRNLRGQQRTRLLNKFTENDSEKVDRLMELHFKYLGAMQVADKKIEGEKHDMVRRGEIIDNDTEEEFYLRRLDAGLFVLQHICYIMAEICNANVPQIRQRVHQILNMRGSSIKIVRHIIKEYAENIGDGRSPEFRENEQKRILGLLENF

[2] = molecular target: the molecule itself; assay: SEC-MALS; CTNNBL1 (full length or [77–563]) alone; also in high salt buffer (0.5 M NaCl) or with CWC15[80–229] added; Supplementary Figure S7
CWC15[80–229] = molecular target: T2, CWC15[80–229] (human, UniProt Q9P013 80-229); assay: SEC-MALS; mixture of purified His-CTNNBL1[77–563], CDC5L[1–195] and CWC15[80–229]; conditions: both partners purified
T2 construct: Tag cleaved off by HRV 3C protease for gel filtration, crosslinking and HDX; source: E. coli BL21 Rosetta (DE3)pLysS, purified (Glutathione-Sepharose 4B, HRV 3C cleavage, Resource Q)
T2 sequence (looked up): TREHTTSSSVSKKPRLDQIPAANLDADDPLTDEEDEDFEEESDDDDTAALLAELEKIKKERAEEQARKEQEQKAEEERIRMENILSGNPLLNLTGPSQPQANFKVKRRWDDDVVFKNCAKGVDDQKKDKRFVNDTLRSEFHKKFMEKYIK

B1: full-length GST-CWC15 (natural protein, human, UniProt Q9P013 1-229, looked up)
chain: MTTAARPTFEPARGGRGKGEGDLSQLSKQYSSRDLPSHTKIKYRQTTQDAPEEVRNRDFRRELEERERAAAREKNRDRPTREHTTSSSVSKKPRLDQIPAANLDADDPLTDEEDEDFEEESDDDDTAALLAELEKIKKERAEEQARKEQEQKAEEERIRMENILSGNPLLNLTGPSQPQANFKVKRRWDDDVVFKNCAKGVDDQKKDKRFVNDTLRSEFHKKFMEKYIK
notes: source: E. coli BL21 Rosetta (DE3)pLysS, purified (Glutathione-Sepharose 4B)
[1]
  binding result: binds

B2: His-CTNNBL1[77–563] (domain or fragment, human, UniProt Q8WYA6 77-563, looked up)
chain: LDESSVKKMILTFEKRSYKNQELRIKFPDNPEKFMESELDLNDIIQEMHVVATMPDLYHLLVELNAVQSLLGLLGHDNTDVSIAVVDLLQELTDIDTLHESEEGAEVLIDALVDGQVVALLVQNLERLDESVKEEADGVHNTLAIVENMAEFRPEMCTEGAQQGLLQWLLKRLKAKMPFDANKLYCSEVLAILLQDNDENRELLGELDGIDVLLQQLSVFKRHNPSTAEEQEMMENLFDSLCSCLMLSSNRERFLKGEGLQLMNLMLREKKISRSSALKVLDHAMIGPEGTDNCHKFVDILGLRTIFPLFMKSPRKIKKVGTTEKEHEEHVCSILASLLRNLRGQQRTRLLNKFTENDSEKVDRLMELHFKYLGAMQVADKKIEGEKHDMVRRGEIIDNDTEEEFYLRRLDAGLFVLQHICYIMAEICNANVPQIRQRVHQILNMRGSSIKIVRHIIKEYAENIGDGRSPEFRENEQKRILGLLENF
notes: Homotrimer when alone in solution by SEC-MALS (165 kDa); also called N-terminal truncation mutant of CTNNBL1; source: E. coli BL21 Rosetta (DE3)pLysS, purified (Ni-NTA, Resource Q)
[2]
  stoichiometry N: 3

B3: CDC5L[1–195] (domain or fragment, human, UniProt Q99459 1-195, looked up)
chain: MPRIMIKGGVWRNTEDEILKAAVMKYGKNQWSRIASLLHRKSAKQCKARWYEWLDPSIKKTEWSREEEEKLLHLAKLMPTQWRTIAPIIGRTAAQCLEHYEFLLDKAAQRDNEEETTDDPRKLKPGEIDPNPETKPARPDPIDMDEDELEMLSEARARLANTQGKKAKRKAREKQLEEARRLAALQKRRELRAAG
notes: Tag cleaved off by TEV protease for gel filtration, crosslinking and HDX; source: E. coli BL21 Rosetta (DE3)pLysS, purified (amylose resin, TEV cleavage, Resource S)
CWC15[80–229]
  stoichiometry N: 1
